One molecule from patent US20240382587A1 (TRUSTEES OF INDIANA UNIVERSITY, published 2024) can be followed below.

The assay has as its target T1, recombinant human B domain deleted (BDD)-FVIII (Xyntha) (human, UniProt P00451 20-2351).
T1 sequence (looked up): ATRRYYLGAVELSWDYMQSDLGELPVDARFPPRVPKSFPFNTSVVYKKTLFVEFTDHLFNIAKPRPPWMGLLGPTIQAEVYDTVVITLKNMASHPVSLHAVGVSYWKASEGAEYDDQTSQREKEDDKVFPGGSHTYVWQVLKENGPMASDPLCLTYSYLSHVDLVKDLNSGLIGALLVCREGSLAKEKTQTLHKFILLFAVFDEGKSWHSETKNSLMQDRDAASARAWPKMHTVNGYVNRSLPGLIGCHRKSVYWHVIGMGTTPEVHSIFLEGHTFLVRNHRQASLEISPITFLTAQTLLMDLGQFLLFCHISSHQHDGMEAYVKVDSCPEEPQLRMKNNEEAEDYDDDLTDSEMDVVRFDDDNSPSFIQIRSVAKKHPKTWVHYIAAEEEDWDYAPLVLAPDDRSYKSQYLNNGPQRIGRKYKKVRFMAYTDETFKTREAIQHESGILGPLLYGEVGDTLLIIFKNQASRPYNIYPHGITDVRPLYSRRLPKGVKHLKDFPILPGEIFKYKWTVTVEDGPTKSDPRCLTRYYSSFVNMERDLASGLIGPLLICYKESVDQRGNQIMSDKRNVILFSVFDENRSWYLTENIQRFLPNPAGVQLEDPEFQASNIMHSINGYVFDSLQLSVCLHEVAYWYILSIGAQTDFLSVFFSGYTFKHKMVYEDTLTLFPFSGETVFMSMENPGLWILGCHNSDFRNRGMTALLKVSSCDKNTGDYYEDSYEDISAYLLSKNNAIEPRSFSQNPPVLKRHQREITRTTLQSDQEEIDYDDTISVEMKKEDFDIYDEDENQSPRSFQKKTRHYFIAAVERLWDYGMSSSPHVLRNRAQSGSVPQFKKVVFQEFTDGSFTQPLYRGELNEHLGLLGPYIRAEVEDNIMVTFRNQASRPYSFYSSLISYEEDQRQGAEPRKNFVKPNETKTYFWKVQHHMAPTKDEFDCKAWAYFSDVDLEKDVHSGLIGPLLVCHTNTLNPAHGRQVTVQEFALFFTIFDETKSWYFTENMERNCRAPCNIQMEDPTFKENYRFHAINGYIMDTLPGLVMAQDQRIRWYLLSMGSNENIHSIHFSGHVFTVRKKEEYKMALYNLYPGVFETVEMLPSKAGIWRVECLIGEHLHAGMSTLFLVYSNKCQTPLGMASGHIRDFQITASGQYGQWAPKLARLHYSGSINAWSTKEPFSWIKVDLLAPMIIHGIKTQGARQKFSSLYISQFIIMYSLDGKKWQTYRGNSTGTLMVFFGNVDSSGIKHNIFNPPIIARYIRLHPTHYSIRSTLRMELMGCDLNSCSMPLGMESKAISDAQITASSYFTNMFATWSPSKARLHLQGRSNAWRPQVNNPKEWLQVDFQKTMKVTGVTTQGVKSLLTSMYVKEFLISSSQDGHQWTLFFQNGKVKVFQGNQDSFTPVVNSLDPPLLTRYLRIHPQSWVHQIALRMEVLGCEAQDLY
As to the kind of experiment: cell-based or functional assay.

B1: FVIII TRUC (TCR fusion construct: BO2C11 FVIII scFv fused to the N-terminus of murine CD3 epsilon) (scFv)
chain: EIALTQSPGTLSLSPGERATLSCRASQSFSSSYLAWYQQKPGQAPRLLIYGASTRATGIPDRFSGSGSGTDFTLTISRLEPEDFAVYYCQKYGTSAITFGQGTRLEIKGGGGGSGGGGSGGGGSQVQLVQSGAEVKKPGASVKVSCKVSGYTLTELPVHWVRQAPGKGLEWVGSFDPESGESIYAREFQGSVTMTADTSTDIAYMELSSLRSDDTAVYYCAVPDPDAFDIWGQGTMVTVSSGGGGSGGGGSGGGGSDAENIEYKVSISGTSVELTCPLDSDENLKWEKNGQELPQKHDKHLVLQDFSEVEDSGYYVCYTPASNKNTYLYLKARVCEYCVEVDLTAVAIIIIVDICITLGLLMVIYYWSKNRKAKAKPVTRGTGAGSRPRGQNKERPPPVPNPDYEPIRKGQRDLYSGLNQRAV
In the case of B1, the “CTLA4 expression in TRUC Tregs in vitro” value was 5 fold.
